# Laboratory results published in publication PMC7413375, “A study on the response of FRET based DNA aptasensors in intracellular environment”.
# Target: TNF-alpha (UniProt P01375 77-233)
# Test: FRET quenching (QD photoluminescence decreases with TNF-alpha); DSS peptide-conjugated QD/Au molecular beacon, TNF-alpha in PBS; TNF-alpha samples in PBS; other assay conditions (temperature, concentrations) not in the material; beacon washed in 50 mM borate pH 8.3
# Details: chain copies: 3
# Sequence of TNF-alpha (P01375 77-233): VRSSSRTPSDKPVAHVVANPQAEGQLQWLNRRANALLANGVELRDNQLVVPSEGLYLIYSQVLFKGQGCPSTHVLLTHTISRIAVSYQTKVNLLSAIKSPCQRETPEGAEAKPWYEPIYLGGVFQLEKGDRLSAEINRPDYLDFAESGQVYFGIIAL
binder,measurement,value
"TGGTGGATGGCGCAGTCGGCGACAA (ssDNA, 5' Amino C6; 3' Thiol C6 SS) [TNF-alpha binding DNA aptamer (25 nt) in DSS-molecular beacon]",binding result,binds
